Measurements reported in PMC6123711, “Conformational signatures in β-arrestin2 reveal natural biased agonism at a G-protein-coupled receptor” (Communications Biology, 2018).
Marks after values point to notes of the source that are not given here.

What was measured:
Assay type in all cases: cell-based, human
Galr2 [1] = assay: Quantification of biased agonism between two pathways (operational model); conditions: for ΔΔLog(τ/KA) (bias factor), Gαq-dependent-pErk1/2/β-arrestin1: Gαq-dependent-pErk1/2 vs β-arrestin1; for ΔΔLog(τ/KA) (bias factor), SRE-Luc/clathrin:β-arrestin2: SRE-Luc vs clathrin:β-arrestin2; for ΔΔLog(τ/KA) (bias factor), SRE-Luc/β-arrestin1: SRE-Luc vs β-arrestin1; for ΔΔLog(τ/KA) (bias factor), SRE-Luc/β-arrestin2: SRE-Luc vs β-arrestin2; for ΔΔLog(τ/KA) (bias factor), Total inositol phosphate/clathrin:β-arrestin2: total inositol phosphate vs clathrin:β-arrestin2; for ΔΔLog(τ/KA) (bias factor), Total inositol phosphate/β-arrestin1: total inositol phosphate vs β-arrestin1; for ΔΔLog(τ/KA) (bias factor), Total inositol phosphate/β-arrestin2: total inositol phosphate vs β-arrestin2; for ΔΔLog(τ/KA) (bias factor), β-Arrestin-dependent-pErk1/2/β-arrestin2: β-arrestin-dependent-pErk1/2 vs β-arrestin2
Description: To determine whether differential signaling at Galr2 (Figs. 2 and 5) may be translated into biased agonism, we used the operational model of agonism (Eq. 2) to calculate the logarithm of the transduction coefficient (log(τ/KA)) for each agonist at each pathway (Table 1)[4]. We used Galanin as a reference ligand during all experiments. […] We also calculated bias factors for G-protein-dependent pErk1/2 and β-arrestins.
Quantification of bias between each pathway was performed using Galanin as a reference ligand. All incubations for the different signaling assays were performed in serum-free medium to prevent peptide degradation.
To calculate biased factors and compare agonist profiles, the dose–response data were fit to the following form of the operational model of agonism:[42]2 Y=Basal+Em-basalτ/KA^n[A]^n/[A]^nτ/KA^n+1+[A]/KA^n where Em is the maximal possible response of the system, Basal is the basal level of response, KA represents the equilibrium dissociation constant of the agonist (A), and τ is an index of the signaling efficacy of the agonist that is defined as RT/KE. RT is the total number of receptors, KE is the coupling efficiency of each agonist-occupied receptor, and n is the slope of the transducer function that links occupancy to response. One assumption of the analysis is that the transduction machinery used for a given cellular pathway are the same for all agonists, such that the Em and transducer slope (n) are shared between agonists. The data for all compounds for each pathway were fit globally, to determine values of KA and τ. Biased agonism was quantified as previously described. […] The relative bias can then be calculated for each agonist at the two different signaling pathways by subtracting the Δlog(τ/KA) of one pathway from the other to give a ΔΔlog(τ/KA) value, which is a measure of bias. […] All transduction ratios (log(τ/KA)) parameters were estimated as logarithms. All results were expressed as mean ± s.e.m. values. We performed a Brown–Forsythe test (Graph Pad Prism 7.0) to assure ourselves of equal variances between the compared parameters.

Galr2 [2] = assay: Gαq-dependent Erk1/2 phosphorylation (β-arrestin1/2-knockout HEK293 cells); conditions: for ΔLog(τ/KA), Gαq-dependent-pErk1/2: normalized to Galanin (reference agonist), in parenthesis, mean ± s.e.m. of three experiments in triplicate; for Log(τ/KA), Gαq-dependent-pErk1/2: western blot, 5 min stimulation, operational model (Eq. 2), mean ± s.e.m. of three experiments in triplicate (table footnote)
Description: (§1) Galr2 is primarily coupled to the Gαq-protein which activates the phospholipase C/protein kinase C pathway for inositol phosphate production. We measured G-protein activation in HEK293 cells transiently expressing Galr2, using the serum response element-luciferase (SRE-Luc) gene reporter assay[10],[37] and for a more specific monitoring of Gαq-protein activity we also measured total inositol phosphate production. […] However, some differences were observed between SRE-Luc activity and total inositol phosphate production in the rank order of potency of the tested ligands. […] Phosphorylation of extracellular signal-regulated protein kinases 1 and 2 (pErk1/2) is either G-protein or β-arrestin dependent. To distinguish Gαq-protein- and β-arrestin1/2-dependent Erk1/2 signaling, we examined ligand-stimulated Erk1/2 phosphorylation in three different HEK293 cell lines, wild type, Gαq/11-knockout, and β-arrestin1/2-knockout cells. All three ligands induced high levels of Erk1/2 phosphorylation dose-dependently in wild-type HEK293 cells.
(§2) Fig. 5 Galr2 agonists display different Gαq-protein-dependent signaling and pErk1/2. The ability of increasing concentrations of agonists to induce a SRE-Luc activity and b total inositol phosphate production. c Representative western blot showing ligand-induced phosphorylation of Erk1/2 from wild-type (HEK293 WT), Gαq/11-, and β-arrestin1/2-knockout HEK293 cells expressing Galr2 (original blots are presented in Supplementary Figure 4). pErk1/2 and total Erk levels were determined at 5 min after stimulation of different concentrations of three ligands. Western blot band intensities corresponding to each concentration were quantified using Image studio ^TM Software. […] Data are the mean ± s.e.m. values of two independent experiments
(§3) pErk1/2 was measured using western blot assay. HEK293 Gαq/11 and β-arrestin1/2-knockout cells were a kind gift from Professor Asuka Inoue, Tohoku University. The cells were seeded into 6-well plates at a density of 6 × 10^5 cells per well. The next day, they were transfected using 2 μg/well of plasmid containing human Galr2 cDNA and Lipofectamine 2000, according to the manufacturer’s instructions. Before assay, the cells were washed with phosphate-buffered saline and incubated in serum-free DMEM overnight. Dose–response experiments were performed for each ligand at 37 °C. Stimulation of the cells was terminated after 5 min of agonist stimulation by removing the medium, and the addition of 250 μl cold lysis buffer to each well. Immunoblots of phospho-Erk1/2 were obtained using 8 μg of total protein and p44/42 MAPK Erk1/2 antibody (Cell Signaling Technology Inc, catalog no. 4370 S); horseradish peroxidase-conjugated goat anti-rabbit IgG was used as a secondary antibody (Thermo Fisher Scientific). The proteins were visualized using enhanced chemiluminescence (GE Health Care). Image Studio ^TM Software was used for the pErk1/2 band density analysis.

Galr2 [3] = assay: β-Arrestin1/2-dependent Erk1/2 phosphorylation (Gαq/11-knockout HEK293 cells); conditions: for ΔLog(τ/KA), β-Arrestin1/2 dependent-pErk1/2: normalized to Galanin (reference agonist), in parenthesis, mean ± s.e.m. of three experiments in triplicate; for Log(τ/KA), β-Arrestin1/2 dependent-pErk1/2: western blot, 5 min stimulation, operational model (Eq. 2), mean ± s.e.m. of three experiments in triplicate (table footnote)
Description: as §1, §2
as §3, with “The proteins were visualized using enhanced chemiluminescence (GE Health Care). Image Studio ^TM Software was used for the pErk1/2 band density analysis.” left out

[4] = reference agonist Galanin, mean ± s.e.m. of three experiments in triplicate

Molecule	overall signaling at Galr2 (Galr2 [1]; G-protein and β-arrestin1/2)	ΔΔLog(τ/KA) (bias factor), Gαq-dependent-pErk1/2/β-arrestin1 (Galr2 [1]; [4])	ΔΔLog(τ/KA) (bias factor), Gαq-dependent-pErk1/2/β-arrestin2 (Galr2 [1]; Gαq-dependent-pErk1/2 vs β-arrestin2, reference agonist Galanin, mean ± s.e.m. of three experiments in triplicate)	ΔΔLog(τ/KA) (bias factor), SRE-Luc/clathrin:β-arrestin2 (Galr2 [1]; [4])	ΔΔLog(τ/KA) (bias factor), SRE-Luc/β-arrestin1 (Galr2 [1]; [4])	ΔΔLog(τ/KA) (bias factor), SRE-Luc/β-arrestin2 (Galr2 [1]; [4])	ΔΔLog(τ/KA) (bias factor), Total inositol phosphate/clathrin:β-arrestin2 (Galr2 [1]; [4])	ΔΔLog(τ/KA) (bias factor), Total inositol phosphate/β-arrestin1 (Galr2 [1]; [4])	ΔΔLog(τ/KA) (bias factor), Total inositol phosphate/β-arrestin2 (Galr2 [1]; [4])	ΔΔLog(τ/KA) (bias factor), β-Arrestin-dependent-pErk1/2/β-arrestin2 (Galr2 [1]; [4])	ΔLog(τ/KA), Gαq-dependent-pErk1/2 (Galr2 [2])	Log(τ/KA), Gαq-dependent-pErk1/2 (Galr2 [2])	ΔLog(τ/KA), β-Arrestin1/2 dependent-pErk1/2 (Galr2 [3])	Log(τ/KA), β-Arrestin1/2 dependent-pErk1/2 (Galr2 [3])	biased agonism, pErk1/2 vs β-arrestin isoforms (Galr2 [1]; Gαq-dependent pErk1/2 vs the two β-arrestin isoforms, relative to Galanin)	biased agonism, β-arrestin-dependent pErk1/2 vs β-arrestin2 recruitment (Galr2 [1]; relative to Galanin)	biased agonism (Galr2 [1]; relative to Galanin, Gαq-protein-dependent signaling vs β-arrestins and β-arrestin2–clathrin)	pathway responsible for agonist-induced Erk1/2 phosphorylation (Galr2 [2]; from comparison of wild-type, Gαq/11- and β-arrestin1/2-knockout HEK293 cells)
Galanin [reference compound]	robust signaling toward G-protein and β-arrestin1/2	0.00 ± 0.22	0.00 ± 0.04	0.00 ± 0.17	0.00 ± 0.002	0.00 ± 0.02	0.00 ± 0.19	0.00 ± 0.03	0.00 ± 0.05	0.00 ± 0.38	0.00 ± .22	6.90 ± 0.22	0.00 ± 0.40	6.42 ± 0.41	–	–	–	–
Spexin (peptide, UniProt Q9BT56 27-116, looked up, Spexin, endogenous peptide ligand of Galr2 and Galr3; synthesized by AnyGen) Spexin: APQRLLERRNWTPQAMLYLKGAQGRRFISDQSRRKDLSDRPLPERRSPNPQLLTIPEAATILLASLQKSPEDEEKNFDQTRFLEDSLLNW	–	1.10 ± 0.29^b	–	1.88 ± 0.07^b	0.63 ± 0.06^b	0.77 ± 0.02^b	1.84 ± 0.12^b	0.60 ± 0.09^b	0.73 ± 0.09^b	1.40 ± 0.16^a	0.57 ± 0.22	7.47 ± 0.21	0.73 ± 0.13	7.15 ± 0.14	biased signaling toward Gαq-dependent pErk1/2 over the two β-arrestin isoforms	biased agonism was also detected toward β-arrestin-dependent pErk1/2 over β-arrestin2 recruitment	biased agonism toward Gαq-protein-dependent signaling over β-arrestins and β-arrestin2–clathrin interactions	likely mainly attributable to the G-protein-dependent signaling pathway
